One may read the Kd as the constant that tells how readily two partners part at equilibrium.

The target of this assay is recombinant human tau. Put plainly: SPR. In general terms: SPR reads the build-up and loss of mass on a sensor chip optically.

B1: 7G6 (antibody, V domains shown)
VH: EVQLQQSGAELVRPGALVKLSCKASGFNIKDYYIHWVKQRPEQGLEWIGWIDPENGETVYDPKFQGKASITSDTSSNTAYLQLRSLTSEDTAVYYSTSLDFWGQGTSVTVSS
VL: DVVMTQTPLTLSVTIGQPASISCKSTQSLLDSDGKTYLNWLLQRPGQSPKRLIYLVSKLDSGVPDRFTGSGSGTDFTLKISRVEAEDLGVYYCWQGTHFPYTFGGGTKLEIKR
Consider B1, for which the Kd turned out to be 5.77 nM.
